Target: T1, Aβ42 peptide (amyloid β peptide 1-42), soluble (UniProt P05067 672-713)
T1 construct: domain: Aβ1-42; also called Aβ1-42; soluble Aβ42 peptide
Assay: ELISA; tat-VL coated, Aβ42 peptide at 100 ng/well, anti-Aβ42 monoclonal antibody detection

T1 sequence (P05067 672-713 limits assumed): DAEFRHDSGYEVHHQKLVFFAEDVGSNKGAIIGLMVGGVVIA

B1: tat peptide-fused human-derived anti-Aβ42 peptide VL chain (other)
chain: MGYGRKKRRQRRRGDIVMTQSPDSLAVSLGERATINCKSSQSVIHNSNVKNCLAWYQQKLGQPPNLLIYWASTRESGVPDRFSGSGSGTDFTLKISRVEAEDVGVYYCMQSIQLPRTFGQGTKVEIKR
notes: also called tat-VL chain; tat peptide-fused VL chain
  binding result: binds

— patent US20080131422A1 (JURIDICAL FOUNDATION THE CHEMO SERO THERAPEUTIC RESEARCH …, published 2008)
